Measurements: US20230110188A1 (ARGENX IIP, published 2023)
Changes are numbered by the printed parent chain. Each block holds one binder with its values, some of them ahead of it.

Tests used:
[1] = target: T1, Mouse MuSK as it stands on mouse muscle (neuromuscular junctions, C2C12 myotubes) (mouse, UniProt Q61006 22-868); assay: cell-based or functional assay
T1 sequence (looked up): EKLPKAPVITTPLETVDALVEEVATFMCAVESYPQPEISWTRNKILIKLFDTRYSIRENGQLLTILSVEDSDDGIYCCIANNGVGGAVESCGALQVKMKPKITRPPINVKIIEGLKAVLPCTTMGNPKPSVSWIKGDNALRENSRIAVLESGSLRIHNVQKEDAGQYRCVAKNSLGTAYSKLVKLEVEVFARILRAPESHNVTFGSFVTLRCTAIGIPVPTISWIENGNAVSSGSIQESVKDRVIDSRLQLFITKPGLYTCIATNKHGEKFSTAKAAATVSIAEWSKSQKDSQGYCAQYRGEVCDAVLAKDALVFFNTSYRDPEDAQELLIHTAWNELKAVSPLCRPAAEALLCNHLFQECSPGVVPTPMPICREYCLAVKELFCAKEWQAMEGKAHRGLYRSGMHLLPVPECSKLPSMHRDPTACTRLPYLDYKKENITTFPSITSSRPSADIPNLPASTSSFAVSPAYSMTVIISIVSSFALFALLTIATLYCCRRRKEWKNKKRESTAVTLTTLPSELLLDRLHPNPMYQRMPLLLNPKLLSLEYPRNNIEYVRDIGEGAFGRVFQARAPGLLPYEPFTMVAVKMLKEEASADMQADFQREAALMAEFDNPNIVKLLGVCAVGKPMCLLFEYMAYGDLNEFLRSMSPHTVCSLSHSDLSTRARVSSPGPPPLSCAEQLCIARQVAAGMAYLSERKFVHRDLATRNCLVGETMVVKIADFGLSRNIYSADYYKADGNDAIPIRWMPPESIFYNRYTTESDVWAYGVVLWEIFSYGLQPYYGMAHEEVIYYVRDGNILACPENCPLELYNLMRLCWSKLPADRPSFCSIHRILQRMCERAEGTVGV

[2] = target: T2, Human MuSK (R&D Systems, cat. 10189-MK, histidine tag) (human, UniProt O15146 24-495); assay: SPR (Biacore), MuSK-coated chip, antibody alone (run of first antibody 3F6c)
T2 construct: Bought protein; also called human monomeric MuSK-6xhis; not shown: histidine tag (6xhis)
T2 sequence: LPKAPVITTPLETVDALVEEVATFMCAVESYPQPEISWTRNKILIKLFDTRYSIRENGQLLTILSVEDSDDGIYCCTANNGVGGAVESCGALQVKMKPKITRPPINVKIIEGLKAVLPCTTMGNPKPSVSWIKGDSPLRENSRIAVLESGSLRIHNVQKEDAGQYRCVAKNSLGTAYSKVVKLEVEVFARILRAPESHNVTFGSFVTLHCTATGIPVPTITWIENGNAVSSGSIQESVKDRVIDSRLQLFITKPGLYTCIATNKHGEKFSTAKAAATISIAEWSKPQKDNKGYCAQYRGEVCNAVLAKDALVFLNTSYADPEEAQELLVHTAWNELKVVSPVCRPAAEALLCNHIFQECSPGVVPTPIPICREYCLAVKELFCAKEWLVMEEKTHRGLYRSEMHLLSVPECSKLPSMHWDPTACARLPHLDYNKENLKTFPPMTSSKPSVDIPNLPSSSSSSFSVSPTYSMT
Method: A chip was coated with ˜5000 RU of human MuSK (Lot nr DHUCO 11908A, batch nr 1089_MK). In a first experiment the saturating concentration of the pre-leads was determined. This is the concentration where the amplitude of a specific pre-lead doesn't increase anymore when additional pre-lead is injected on the immobilized MuSK.

[3] = target: T3, hMuSK delta 1 (Ig2-3 Fz) (human, UniProt O15146); assay: ELISA, hMuSK delta 1 (Ig2-3 Fz) captured on anti-FLAG coat, antibody titrated, anti-human Fc HRP detection, OD450
T3 construct: truncated extracellular domain, captured by anti-FLAG
T3 sequence (truncated extracellular domain, looked up): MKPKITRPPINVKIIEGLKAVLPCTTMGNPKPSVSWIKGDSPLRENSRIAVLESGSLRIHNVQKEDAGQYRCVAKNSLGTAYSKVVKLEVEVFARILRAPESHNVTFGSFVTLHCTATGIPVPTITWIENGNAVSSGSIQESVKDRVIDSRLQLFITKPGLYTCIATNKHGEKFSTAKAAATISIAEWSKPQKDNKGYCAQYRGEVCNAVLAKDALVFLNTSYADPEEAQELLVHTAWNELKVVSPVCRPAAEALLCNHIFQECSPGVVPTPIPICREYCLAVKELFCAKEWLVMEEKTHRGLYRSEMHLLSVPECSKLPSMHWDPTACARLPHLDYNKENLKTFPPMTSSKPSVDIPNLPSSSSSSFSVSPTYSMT
Method: For binding to MuSK domains—An ELISA plate was coated with 0.5 μg/ml of anti-FLAG (M2 clone, Sigma Cat. F3165) and incubated overnight at 4° C. Next, the plate was washed with PBS and blocked with 1×PBS 1% casein for two hours at RT. After washing the plate, human monomeric MuSK FLAG streptavidin (batch 27-6-2019) and truncated MuSK variants (batch 3-9-2019) at 1 μg/ml in PBS where incubated for one hour at RT. After washing the plate, antibodies were diluted in blocking buffer and added to the plate. After a one hour incubation at RT, the plate was washed. Next, detecting antibody was added and incubated for one hour at RT (anti-human Fc HRP (1/5000) (clone 5A9, cat. No. Ab7499, ABCAM)) in blocking buffer. Lastly, the plate was washed with PBS and TMB was added and the reaction was stopped with 0.5 M H2SO4. OD 450 nm was determined by the Tecan Sunrise ELISA plate reader.
For the MuSK domain binding ELISA, binding of anti-MuSK antibodies to FLAG captured human monomeric MuSK and truncated variants was tested (FIG. 6). 3D9b, 3F6c, 3D10a, 4D3 and 3B5 bound only to full length MuSK, no binding was observed against the truncated MuSK variants. Therefore, we conclude that our antibodies bind to the Ig1 domain.

AChR clusters larger or equal to 15 µm (large clusters) compared to agrin; Exp 1, batch Argenx [1]: 52 % of agrin
AChR clusters larger or equal to 15 µm (large clusters) compared to agrin; Exp 2, batch Argenx [1]: 73 % of agrin
AChR clusters larger or equal to 15 µm (large clusters) compared to agrin; Exp 3, batch UPX [1]: 61 % of agrin
amplitude of prelead without presaturating MuSK (RU) [2]: 2370 RU
B1: 3D10a (antibody, human IgG1, kappa, L234A L235A, V domains shown)
VH: EVQLVESGGGLVKPGGSLRLSCAASGFTFSASTMAWVRQAPGKGLEWVSSVSGDSHHIYYADSLKGRFTISRDNAKNSLYLQMNSLRAEDTAVYYCARERLLRLGVGFDSWGQGTLVTVSS
VL: DIQMTQSPSSLSASVGDRVTITCRASQRISGFVNWYQQKPGKAPKLLIYAASTLQSGVPSRFSGSGSGTDFTLTISSLQPEDFATYYCQQSYSPLYTFGQGTKLEIKR
binding result [3]: no binding (tested: log(conc) 4.2 (about 16000 ng/ml))

AChR clusters larger or equal to 15 µm (large clusters) compared to agrin; Exp 1, batch Argenx [1]: 80 % of agrin
AChR clusters larger or equal to 15 µm (large clusters) compared to agrin; Exp 2, batch Argenx [1]: 74 % of agrin
AChR clusters larger or equal to 15 µm (large clusters) compared to agrin; Exp 3, batch UPX [1]: 70 % of agrin
amplitude of prelead without presaturating MuSK (RU) [2]: 1660 RU
B2: 3D9b (antibody, human IgG1, kappa, L234A L235A, V domains shown)
VH: EVQLVESGGGLVKPGGSLRLSCAASGFTFSTYTMHWVRQAPGKGLEWVSSISSRSAYKYYADSVKGRFTISRDNAKNSLYLQMNSLRAEDTAVYYCARDFFQLGPPRFDSWGQGTLVTVSS
VL: B1 VL with G31S, V33L, A50G, T53N, L95S
binding result [3]: no binding (tested: log(conc) 4.2 (about 16000 ng/ml))

AChR clusters larger or equal to 15 µm (large clusters) compared to agrin; Exp 1, batch Argenx [1]: 56 % of agrin
AChR clusters larger or equal to 15 µm (large clusters) compared to agrin; Exp 2, batch Argenx [1]: 70 % of agrin
AChR clusters larger or equal to 15 µm (large clusters) compared to agrin; Exp 3, batch UPX [1]: 57 % of agrin
amplitude of prelead without presaturating MuSK (RU) [2]: 3640 RU
B3: 3F6c (antibody, human IgG1, kappa, L234A L235A, V domains shown)
VH: EVQLVESGGGLVKPGGSLRLSCAASGFTFSSYTMDWVRQAPGKGLEWVSSIGSNGDYIYYADSVRGRFTISRDNAKNSLYLQMNSLRAEDTAVYYCARGQLAVAGTHFDYWGQGTLVTVSS
VL: B1 VL with R28K, I29V, S30N, G31K, F32Y, Y96S
binding result [3]: no binding (tested: log(conc) 4.2 (about 16000 ng/ml))

AChR clusters larger or equal to 15 µm (large clusters) compared to agrin; Exp 1, batch Argenx [1]: 84 % of agrin
AChR clusters larger or equal to 15 µm (large clusters) compared to agrin; Exp 2, batch Argenx [1]: 58 % of agrin
AChR clusters larger or equal to 15 µm (large clusters) compared to agrin; Exp 3, batch UPX [1]: 59 % of agrin
amplitude of prelead without presaturating MuSK (RU) [2]: 2390 RU
B4: 4D3 (antibody, human IgG1, kappa, L234A L235A, V domains shown)
VH: B1 VH with A31S, S32Y, A35T, V51I, G53S, D54G, S55G, H57Y, A61T, S110F
VL: B1 VL with R28S, F32Y, V33L, P94A
binding result [3]: no binding (tested: log(conc) 4.2 (about 16000 ng/ml))
